The supplement of paper PMC9170038

System: MS2 coat protein
Experiment: apparent KD of MS2 coat protein; designed switch direction (-1 OFF switch, 1 ON switch): 1; higher = weaker reporter binding
Outline: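 SNAP-549-labelled MS2 coat protein was titrated, doubling from 0.7 or 1.5 nM to 3 µM, over designed RNA switches transcribed on Illumina chips by stalled E. coli RNA polymerase. Runs were done without input, with 200 uM small-molecule ligand, or with an oligonucleotide input. Apparent KD is the per-design median over clusters of curve-fitted normalised fluorescence.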

[1] = input ligand: microRNA oligo, concentration not stated
[2] = Eterna round: R95, input ligand: FMN 200 uM
[3] = Eterna round: R95, input ligand: microRNA oligo, concentration not stated
[4] = Eterna round: R95, input ligand: none

Sequence	apparent KD of MS2 coat protein (input ligand: FMN 200 uM) [nM]	apparent KD of MS2 coat protein [1] [nM]	apparent KD of MS2 coat protein (input ligand: none) [nM]	apparent KD of MS2 coat protein [2] [nM]	apparent KD of MS2 coat protein [3] [nM]	apparent KD of MS2 coat protein [4] [nM]
AUAGUUGCUGAAGGAUAUGAUGAGGAUCACCCAUCAGAAGGUUGGCUAUUGGGUGGACAUGAGGAUCACCCGUGUUCUUUGGUA (Eterna round: R96, puzzle: Same State NG 1)	48.6	59.1	82.4			
AUCCUACAUGAGGAUCACCCAUGUGAAGCCUCAAUAGGAUAUGCGUGUGCCUUGGCGCAUGCAGAAGGAUUGAAGC [JL Aveso mod 3] (puzzle: Same State 1)				91	311	967
AUGAAGAAUUAAGGAUAUUGAUUACAUAUGUUUAACAUGAGGAUCACCCAUGUGGGUUGCGGUAUCGAGAAGGUAAAAUAAAAG [Mat - same State NG 2 - JL mod - D89] (Eterna round: R96, puzzle: Same State NG 2)	252	193	213			
AUGAUAUACUCAGGAUAUAUGCGAGACGACGAGAUAGAAGGGAGAAGAUAAUGACGUACAUGAGGAUCACCCAUGUGAGGAUCA [Same State NG1 S4] (Eterna round: R96, puzzle: Same State NG 1)	26.9	20.6	34			
AUGGGCAUGCUAGGAUAUUAUAGUAGGCAGCAAUGAGAAGGAGUAUCCCGUUGCUAUCACGCACCACAUGAGGAUCACCCAUGU [Eternabot solution 32] (Eterna round: R96, puzzle: Same State NG 1)	24.9	19.5	28.3			
AUGUAUCGCCUCGAGGAUAUCCUGUCAUGCACAUGAGGAUCACCCAUGUAAGAGCGAGUUUAAUGGGAGAAGGCGAGUUCUCGGU [JR_SS002_Sub1707] (Eterna round: R96, puzzle: Same State 2)	46.9	78.5	106			
AUUAAACAUGAGGAUCACCCAUGUAAUAAUAUGGGAGGAUAUGCGAAUUUAAUUAUUUAAGCAGAAGGCCUAAUUA [Mat - Same State 1 - D100] (puzzle: Same State 1)					56	
AUUAAACAUGAGGAUCACCCAUGUCAACAAAGUCGAGGAUAUGGGCAAAUAAAAUAAGAACCAGAAGGCGAUUAAU [salish99_ss1_r3_078] (puzzle: Same State 1)				18.7	109	95.7
AUUAAACAUGAGGAUCACCCAUGUCAACAAAGUCGAGGAUAUGGGCAAAUAAAUUAAGAACCAGAAGGCGAAUAAU [salish99_ss1_r3_057] (puzzle: Same State 1)					266	
AUUAAACAUGAGGAUCACCCAUGUCAACAAAGUCGAGGAUAUGGGCAAUUAAAAUAAGAACCAGAAGGCGAAUAAU [salish99_ss1_r3_061] (puzzle: Same State 1)					224	
AUUAAUUAUGCAGGAUAUGAUUAACAUGAGGAUCACCCAUGUGGUGUUGUGAGUAAGGAGAGUGAUCAGAAGGGCAUUUUUUUU [JMF's solution 66] (Eterna round: R96, puzzle: Same State NG 2)	652	524	449			
AUUAUACAUGAGGAUCACCCAUGUAAUUAAUUAAUUAAGAUCAAGGAUAUCAGCUCGAAUAGAGCUGAGAAGGUGAUCACAUGU [SSNG3/20-B1] (Eterna round: R96, puzzle: Same State NG 3)		218				
AUUAUCUAUGCAGGAUAUGAUUAACAUGAGGAUCACCCAUGUGGUGUUGUGAGUAAGGAGAGUGAUCAGAAGGGCAUUUUUUUU [JMF's solution 65] (Eterna round: R96, puzzle: Same State NG 2)	875	370	566			
AUUAUUUAUGCAGGAUAUGAUUAACAUGAGGAUCACCCAUGUGGUGUUGUGAGUAAGGAGAGUGAUCAGAAGGGCAUUUUUUUG [JMF's solution 57] (Eterna round: R96, puzzle: Same State NG 2)	666	451	350			
AUUGGGUAACGAGGAUAUCGUUUUUGUUUUCUUCGAGAAGGCGUUAUUGUUUAUUUCUAUUGUUACAUGAGGAUCACCCAUGUU [JR_SSNG1_Sub055] (Eterna round: R96, puzzle: Same State NG 1)	15	13.8	21.5			
AUUUCAGUCAGAGGAUAUUGUUUAUCUCUAUUGCAAGAAGGCUGAUCUUACUACCCACUUAUGAAACAUGAGGAUCACCCAUGU [JR_SSNG1_Sub017] (Eterna round: R96, puzzle: Same State NG 1)		15.7				
AUUUGUAAUGCAGGAUAUGAUUAACAUGAGGAUCACCCAUGUGGUGUUGUGAGUAAGGAGAGUGAUCAGAAGGGCAUUUUUUUU [JMF's solution 98] (Eterna round: R96, puzzle: Same State NG 2)	800	295	526			
